Measured values as given in patent US20240123070A1 (published 2024).

T1: KRAS G13D (G13D-RT6) peptide on HLA-DQA1*05:01 / HLA-DQB1*03:01 (human)
T1 peptide: YKLVVVGAGDVGKSAL


Molecular target: T1, KRAS G13D (G13D-RT6) peptide on …
Assay: NFAT-luciferase; Jurkat-NFAT-Luc with the TCR and Lovo-DPA0301:DPB0501 cells loaded with G13D-RT6; against wild-type B8.2.4 TCR; full-length, on cells
Method: The TCR mutant (having a mutation present in CDR3 region) lentiviral vector was transduced into Jurkat-NFAT-Luc cell line, […] (G13D-RT6, SEQ ID NO: 20) were used as antigen-presenting cells (referred to as APCs), 2×10⁴ of the TCR-T and 2×10⁴ of the antigen-loaded APCs were co-cultured for 16-24 hours, added with ONE Glo Luciferase to detect the fluorescent signal expression, then TCR Mut RLU/WT RLU (ratio of RLU signal value of TCR mutant to RLU signal value of wild-type B8.2.4TCR) was calculated, and the results were shown in Table 9.

| Binder | TCR Mut RLU/WT RLU [ratio] |
| --- | --- |
| B8.2.4 TCR mutant α97R-A (TCR, V domains shown) Valpha: AQKITQTQPGMFVQEKEAVTLDCTYDTSDPSYGLFWYKQPSSGEMIFLIYQGSYDQQNATEGRYSLNFQKARKSANLVISASQLGDSAMYFCAMREATGTASKLTFGTGTRLQVTL Vbeta: DVKVTQSSRYLVKRTGEKVFLECVQDMDHENMFWYRQDPGLGLRLIYFSYDVKMKEKGDIPEGYSVSREKKERFSLILESASTNQTSMYLCASSQTVPPQHFGDGTRLSIL | 0.13 |
| B8.2.4 TCR mutant α97R-N (TCR, V domains shown) Valpha: AQKITQTQPGMFVQEKEAVTLDCTYDTSDPSYGLFWYKQPSSGEMIFLIYQGSYDQQNATEGRYSLNFQKARKSANLVISASQLGDSAMYFCAMRENTGTASKLTFGTGTRLQVTL Vbeta: DVKVTQSSRYLVKRTGEKVFLECVQDMDHENMFWYRQDPGLGLRLIYFSYDVKMKEKGDIPEGYSVSREKKERFSLILESASTNQTSMYLCASSQTVPPQHFGDGTRLSIL | 0.16 |
| B8.2.4 TCR mutant α97R-I (TCR, V domains shown) Valpha: AQKITQTQPGMFVQEKEAVTLDCTYDTSDPSYGLFWYKQPSSGEMIFLIYQGSYDQQNATEGRYSLNFQKARKSANLVISASQLGDSAMYFCAMREITGTASKLTFGTGTRLQVTL Vbeta: DVKVTQSSRYLVKRTGEKVFLECVQDMDHENMFWYRQDPGLGLRLIYFSYDVKMKEKGDIPEGYSVSREKKERFSLILESASTNQTSMYLCASSQTVPPQHFGDGTRLSIL | 0.16 |
| B8.2.4 TCR mutant α97R-E (TCR, V domains shown) Valpha: AQKITQTQPGMFVQEKEAVTLDCTYDTSDPSYGLFWYKQPSSGEMIFLIYQGSYDQQNATEGRYSLNFQKARKSANLVISASQLGDSAMYFCAMREETGTASKLTFGTGTRLQVTL Vbeta: DVKVTQSSRYLVKRTGEKVFLECVQDMDHENMFWYRQDPGLGLRLIYFSYDVKMKEKGDIPEGYSVSREKKERFSLILESASTNQTSMYLCASSQTVPPQHFGDGTRLSIL | 0.16 |
| B8.2.4 TCR mutant α97R-C (TCR, V domains shown) Valpha: AQKITQTQPGMFVQEKEAVTLDCTYDTSDPSYGLFWYKQPSSGEMIFLIYQGSYDQQNATEGRYSLNFQKARKSANLVISASQLGDSAMYFCAMRECTGTASKLTFGTGTRLQVTL Vbeta: DVKVTQSSRYLVKRTGEKVFLECVQDMDHENMFWYRQDPGLGLRLIYFSYDVKMKEKGDIPEGYSVSREKKERFSLILESASTNQTSMYLCASSQTVPPQHFGDGTRLSIL | 0.27 |
| B8.2.4 TCR mutant α97R-H (TCR, V domains shown) Valpha: AQKITQTQPGMFVQEKEAVTLDCTYDTSDPSYGLFWYKQPSSGEMIFLIYQGSYDQQNATEGRYSLNFQKARKSANLVISASQLGDSAMYFCAMREHTGTASKLTFGTGTRLQVTL Vbeta: DVKVTQSSRYLVKRTGEKVFLECVQDMDHENMFWYRQDPGLGLRLIYFSYDVKMKEKGDIPEGYSVSREKKERFSLILESASTNQTSMYLCASSQTVPPQHFGDGTRLSIL | 0.13 |
| B8.2.4 TCR mutant α97R-M (TCR, V domains shown) Valpha: AQKITQTQPGMFVQEKEAVTLDCTYDTSDPSYGLFWYKQPSSGEMIFLIYQGSYDQQNATEGRYSLNFQKARKSANLVISASQLGDSAMYFCAMREMTGTASKLTFGTGTRLQVTL Vbeta: DVKVTQSSRYLVKRTGEKVFLECVQDMDHENMFWYRQDPGLGLRLIYFSYDVKMKEKGDIPEGYSVSREKKERFSLILESASTNQTSMYLCASSQTVPPQHFGDGTRLSIL | 0.17 |
| B8.2.4 TCR mutant α97R-K (TCR, V domains shown) Valpha: AQKITQTQPGMFVQEKEAVTLDCTYDTSDPSYGLFWYKQPSSGEMIFLIYQGSYDQQNATEGRYSLNFQKARKSANLVISASQLGDSAMYFCAMREKTGTASKLTFGTGTRLQVTL Vbeta: DVKVTQSSRYLVKRTGEKVFLECVQDMDHENMFWYRQDPGLGLRLIYFSYDVKMKEKGDIPEGYSVSREKKERFSLILESASTNQTSMYLCASSQTVPPQHFGDGTRLSIL | 0.24 |
| B8.2.4 TCR mutant α97R-D (TCR, V domains shown) Valpha: AQKITQTQPGMFVQEKEAVTLDCTYDTSDPSYGLFWYKQPSSGEMIFLIYQGSYDQQNATEGRYSLNFQKARKSANLVISASQLGDSAMYFCAMREDTGTASKLTFGTGTRLQVTL Vbeta: DVKVTQSSRYLVKRTGEKVFLECVQDMDHENMFWYRQDPGLGLRLIYFSYDVKMKEKGDIPEGYSVSREKKERFSLILESASTNQTSMYLCASSQTVPPQHFGDGTRLSIL | 0.17 |

Other lines, results leading:

| TCR Mut RLU/WT RLU [ratio] | Binder |
| --- | --- |
| 0.18 | B8.2.4 TCR mutant α97R-W (TCR, V domains shown) Valpha: AQKITQTQPGMFVQEKEAVTLDCTYDTSDPSYGLFWYKQPSSGEMIFLIYQGSYDQQNATEGRYSLNFQKARKSANLVISASQLGDSAMYFCAMREWTGTASKLTFGTGTRLQVTL Vbeta: DVKVTQSSRYLVKRTGEKVFLECVQDMDHENMFWYRQDPGLGLRLIYFSYDVKMKEKGDIPEGYSVSREKKERFSLILESASTNQTSMYLCASSQTVPPQHFGDGTRLSIL |
| 0.22 | B8.2.4 TCR mutant α97R-S (TCR, V domains shown) Valpha: AQKITQTQPGMFVQEKEAVTLDCTYDTSDPSYGLFWYKQPSSGEMIFLIYQGSYDQQNATEGRYSLNFQKARKSANLVISASQLGDSAMYFCAMRESTGTASKLTFGTGTRLQVTL Vbeta: DVKVTQSSRYLVKRTGEKVFLECVQDMDHENMFWYRQDPGLGLRLIYFSYDVKMKEKGDIPEGYSVSREKKERFSLILESASTNQTSMYLCASSQTVPPQHFGDGTRLSIL |
| 0.16 | B8.2.4 TCR mutant α97R-Q (TCR, V domains shown) Valpha: AQKITQTQPGMFVQEKEAVTLDCTYDTSDPSYGLFWYKQPSSGEMIFLIYQGSYDQQNATEGRYSLNFQKARKSANLVISASQLGDSAMYFCAMREQTGTASKLTFGTGTRLQVTL Vbeta: DVKVTQSSRYLVKRTGEKVFLECVQDMDHENMFWYRQDPGLGLRLIYFSYDVKMKEKGDIPEGYSVSREKKERFSLILESASTNQTSMYLCASSQTVPPQHFGDGTRLSIL |
| 0.16 | B8.2.4 TCR mutant α97R-Y (TCR, V domains shown) Valpha: AQKITQTQPGMFVQEKEAVTLDCTYDTSDPSYGLFWYKQPSSGEMIFLIYQGSYDQQNATEGRYSLNFQKARKSANLVISASQLGDSAMYFCAMREYTGTASKLTFGTGTRLQVTL Vbeta: DVKVTQSSRYLVKRTGEKVFLECVQDMDHENMFWYRQDPGLGLRLIYFSYDVKMKEKGDIPEGYSVSREKKERFSLILESASTNQTSMYLCASSQTVPPQHFGDGTRLSIL |
| 0.23 | B8.2.4 TCR mutant α97R-T (TCR, V domains shown) Valpha: AQKITQTQPGMFVQEKEAVTLDCTYDTSDPSYGLFWYKQPSSGEMIFLIYQGSYDQQNATEGRYSLNFQKARKSANLVISASQLGDSAMYFCAMRETTGTASKLTFGTGTRLQVTL Vbeta: DVKVTQSSRYLVKRTGEKVFLECVQDMDHENMFWYRQDPGLGLRLIYFSYDVKMKEKGDIPEGYSVSREKKERFSLILESASTNQTSMYLCASSQTVPPQHFGDGTRLSIL |
| 0.16 | B8.2.4 TCR mutant α97R-V (TCR, V domains shown) Valpha: AQKITQTQPGMFVQEKEAVTLDCTYDTSDPSYGLFWYKQPSSGEMIFLIYQGSYDQQNATEGRYSLNFQKARKSANLVISASQLGDSAMYFCAMREVTGTASKLTFGTGTRLQVTL Vbeta: DVKVTQSSRYLVKRTGEKVFLECVQDMDHENMFWYRQDPGLGLRLIYFSYDVKMKEKGDIPEGYSVSREKKERFSLILESASTNQTSMYLCASSQTVPPQHFGDGTRLSIL |
